From patent publication US20170166618A1 (Novartis, published 2017)

Target: FGF23 receptor
Test: cell-based or functional assay

B1: sKlotho-FGF23-6×His fusion polypeptide (ligand)
chain: EPGDGAQTWARFSRPPAPEAAGLFQGTFPDGFLWAVGSAAYQTEGGWQQHGKGASIWDTFTHHPLAPPGDSRNASLPLGAPSPLQPATGDVASDSYNNVFRDTEALRELGVTHYRFSISWARVLPNGSAGVPNREGLRYYRRLLERLRELGVQPVVTLYHWDLPQRLQDAYGGWANRALADHFRDYAELCFRHFGGQVKYWITIDNPYVVAWHGYATGRLAPGIRGSPRLGYLVAHNLLLAHAKVWHLYNTSFRPTQGGQVSIALSSHWINPRRMTDHSIKECQKSLDFVLGWFAKPVFIDGDYPESMKNNLSSILPDFTESEKKFIKGTADFFALCFGPTLSFQLLDPHMKFRQLESPNLRQLLSWIDLEFNHPQIFIVENGWFVSGTTKRDDAKYMYYLKKFIMETLKAIKLDGVDVIGYTAWSLMDGFEWHRGYSIRRGLFYVDFLSQDKMLLPKSSALFYQKLIEKNGFPPLPENQPLEGTFPCDFAWGVVDNYIQVDTTLSQFTDLNVYLWDVHHSKRLIKVDGVVTKKRKSYCVDFAAIQPQIALLQEMHVTHFRFSLDWALILPLGNQSQVNHTILQYYRCMASELVRVNITPVVALWQPMAPNQGLPRLLARQGAWENPYTALAFAEYARLCFQELGHHVKLWITMNEPYTRNMTYSAGHNLLKAHALAWHVYNEKFRHAQNGKISIALQADWIEPACPFSQKDKEVAERVLEFDIGWLAEPIFGSGDYPWVMRDWLNQRNNFLLPYFTEDEKKLIQGTFDFLALSHYTTILVDSEKEDPIKYNDYLEVQEMTDITWLNSPSQVAVVPWGLRKVLNWLKFKYGDLPMYIISNGIDDGLHAEDDQLRVYYMQNYINEALKAHILDGINLCGYFAYSFNDRTAPRFGLYRYAADQFEPKASMKHYRKIIDSNGFPGPETLERFCPEEFTVCTECSFFHTRKSLGSGGGGSGGGGSGGGGSLKYPNASPLLGSSWGGLIHLYTATARNSYHLQIHKNGHVDGAPHQTIYSALMIRSEDAGFVVITGVMSRRYLCMDFRGNIFGSHYFDPENCRFQHQTLENGYDVYHSPQYHFLVSLGRAKRAFLPGMNPPPYSQFLSRRNEIPLIHFNTPIPRRHTQSAEDDSERDPLNVLKPRARMTPAPASCSQELPSAEDNSPMASDPLGVVRGGRVNTHAGGTGPEGCRPFAKFIHHHHHH
Egr-1-luciferase reporter activity, fold change at about 0.6 nM, with heparin (20 µg/ml): 2 fold change | Egr-1-luciferase reporter activity, fold change at about 1.21 nM, no heparin: 1.2 fold change | Egr-1-luciferase reporter activity, fold change at about 19.3 nM, no heparin: 2.4 fold change
